Experimental data: IntAct's records for PubMed 21946561

B1: Neuronal tyrosine-phosphorylated phosphoinositide-3-kinase adapter 1 (Mus musculus), Q6PFX7 (parent)
chain: MNLLYRKTKLEWRQHKEEEAKRSSSKEAAPTGPVGPGAVPGPGVRVRDIASLRRSLRMGFMTMPASQEHTPHPCRSTMAPRSLSCHSVGSMDSVGGGPGGGLTEDSSTRRPPAKPRRHPSTKLSMAGPGAETPPSKKAGSQKPAPECRESSRKVPPQKPRRSPNTQLSVSFDESCAPAPSPRGANLPLQRLSRASRITGDLDAGAQEEEPVYIEMVGDVFRGGGRSGGGLAGPPLGSGGPTPPAAADSDSEDSEAIYEEMKYPLPEEAGDGRANGPPPLTAPSPPQQTHILQPHPHPHRRPASALPSRRDGTPTKTTPCEIPPPFPNLLQHRPPLLAFPQAKSASRAPGDGVSRLPVLCHSKEPAGSTPAPQVPARERETPPLPPPPPAANLLLLGPSGRARSHSTPLPPQGSGQTRGERELPNSHSMICPKAAGVPAAHPAPAALLPGPPKDKAVSYTMVYSAVKVTTHSVLPAGPPLGVGEPKTEEISVLHGMLCASSRPPVPGKSSPHSGAMGSAAGVLHHRSCLASPHSLPDPTGGSLTPLWTYPATAAGLKRPPAYDSLKAGGVLNKGCGMGAPSPMVKIQLQEQGTDGGAFASISCAHVIASAGTPEEEEEMGAAFGAGWALQRKVLYGGRKAKEVDTEEDGARAWNGSTEGPGKVEHEDRGPVPSGIPVRSQGAEGLLARIHHDRGGSRTALPVPCQTFPACHRNGDFTGGYRLGRSASTSGVRQAALHTPRPCSQPRDALSQTHPVLPLPLPPQPARERDGKLLEVIERKRCVCKEIKARHRPDRGLCKQESMPILPSWRRVPEPRKSGTPPCRRQHTVLWDTAI
B2: Neuronal tyrosine-phosphorylated phosphoinositide-3-kinase adapter 2 (Mus musculus), Q8BM65-4 (parent)
chain: MIPSKMMSANPEEDPLDTFFQYIEDMGMKAYDGLVIQNASDIARENDRLRNETKLAYLKEKNEKRRRQEETIKRIGGEVGRGQDASYAGKHFRMGFMTMPAPQDRLPHPCSSGFTVRSQSLHSVGGTEDDSSCGSRRQPPPKPKRDPSTKLSTSSETVNSTAASKSGRSLERAEGKFTVPASHSPPRASTSGHLFPSPGSQERNIKVSAKPRPHSDEYSKKIPPPKPKRNPNTQLSTSFDETYIKKHVPRRTSLPRDSSLSQVCSPAADPEEEEPVYIEMVGNILRDFRKEEDDQSEAVYEEMKYPIFDDLGHDSKCDFDHHSCSSQCATPTVPDLDFVKSSGPCTPKGLLCDIPPPFPNLLSHRPPLLVFPPAPVHCSPNSDESPLTPLEVTKLPVLENVSYMKQPPGACPSSLPSHGSSHAKDQTGALGPAPGASILSSSPPPPSTLYRTQSPHGYPKSHSTSPSPVSMGRSLTPLSLKRPPPYDAVHSGSLSRSSSSVPHTTPRPVSQDGAKMVNAAVNTYSAAQSGSRSRTPTSPLEELTSLFTSGRSLLRKSSSGRRSKEPAEKSTEELKVRSHSTEPLPKLDSKERGHYGSSSSREPVKAQEWDGTPGPPVVTSRMGRCSVSPTLLAGNHSSEPKVSCKLGRSASTSGVPPPSVTPLRQASDLQQSQVACMQWFHGDHTMLEMIEKKRCLCKEIKARQKTEKGLCKQDSMPILPSWKKNAGAKKYSPPPYSKQQTVFWDTAI

Variants of: B1
Conditions: with p85a_human PIK3R1, P27986
Target sequence in this assay (P27986 whole entry): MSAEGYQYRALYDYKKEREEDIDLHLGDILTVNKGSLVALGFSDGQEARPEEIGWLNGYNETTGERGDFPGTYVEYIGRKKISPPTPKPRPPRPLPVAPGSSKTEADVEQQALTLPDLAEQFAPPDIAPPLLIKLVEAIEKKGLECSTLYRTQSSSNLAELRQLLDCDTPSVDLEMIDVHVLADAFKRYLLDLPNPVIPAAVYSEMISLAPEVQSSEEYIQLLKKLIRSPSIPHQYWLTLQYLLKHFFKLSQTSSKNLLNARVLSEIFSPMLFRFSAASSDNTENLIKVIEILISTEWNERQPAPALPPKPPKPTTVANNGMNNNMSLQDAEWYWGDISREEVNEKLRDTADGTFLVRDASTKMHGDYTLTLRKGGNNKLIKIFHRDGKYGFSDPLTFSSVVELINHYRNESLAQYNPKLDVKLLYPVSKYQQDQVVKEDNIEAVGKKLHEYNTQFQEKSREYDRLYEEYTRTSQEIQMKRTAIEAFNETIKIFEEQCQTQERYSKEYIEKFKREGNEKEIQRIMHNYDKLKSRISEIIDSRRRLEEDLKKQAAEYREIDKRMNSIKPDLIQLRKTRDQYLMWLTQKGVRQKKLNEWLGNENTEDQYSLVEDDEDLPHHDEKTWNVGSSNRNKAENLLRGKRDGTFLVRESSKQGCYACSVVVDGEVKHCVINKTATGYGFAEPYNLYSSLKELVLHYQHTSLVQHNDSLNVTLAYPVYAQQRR

effect of a mutation on the interaction	Variant
disrupting interaction	Y257F
disrupting interaction	Y212F

Variants of: B1
Conditions: with p85a_human PIK3R1, P27986
Remark: another data set of the same source
Target sequence in this assay (P27986 whole entry): as above

effect of a mutation on the interaction	Variant
decreasing interaction	Y257F

Variants of: B2
Conditions: with p85a_human PIK3R1, P27986
Target sequence in this assay (P27986 whole entry): as above

effect of a mutation on the interaction	Variant
disrupting interaction	Y277F
disrupting interaction	Y300F
